In patent US20240382587A1 (TRUSTEES OF INDIANA UNIVERSITY, published 2024):

Biological target: T1, recombinant human B domain deleted (BDD)-FVIII (Xyntha) (human, UniProt P00451 20-2351)
T1 sequence (looked up): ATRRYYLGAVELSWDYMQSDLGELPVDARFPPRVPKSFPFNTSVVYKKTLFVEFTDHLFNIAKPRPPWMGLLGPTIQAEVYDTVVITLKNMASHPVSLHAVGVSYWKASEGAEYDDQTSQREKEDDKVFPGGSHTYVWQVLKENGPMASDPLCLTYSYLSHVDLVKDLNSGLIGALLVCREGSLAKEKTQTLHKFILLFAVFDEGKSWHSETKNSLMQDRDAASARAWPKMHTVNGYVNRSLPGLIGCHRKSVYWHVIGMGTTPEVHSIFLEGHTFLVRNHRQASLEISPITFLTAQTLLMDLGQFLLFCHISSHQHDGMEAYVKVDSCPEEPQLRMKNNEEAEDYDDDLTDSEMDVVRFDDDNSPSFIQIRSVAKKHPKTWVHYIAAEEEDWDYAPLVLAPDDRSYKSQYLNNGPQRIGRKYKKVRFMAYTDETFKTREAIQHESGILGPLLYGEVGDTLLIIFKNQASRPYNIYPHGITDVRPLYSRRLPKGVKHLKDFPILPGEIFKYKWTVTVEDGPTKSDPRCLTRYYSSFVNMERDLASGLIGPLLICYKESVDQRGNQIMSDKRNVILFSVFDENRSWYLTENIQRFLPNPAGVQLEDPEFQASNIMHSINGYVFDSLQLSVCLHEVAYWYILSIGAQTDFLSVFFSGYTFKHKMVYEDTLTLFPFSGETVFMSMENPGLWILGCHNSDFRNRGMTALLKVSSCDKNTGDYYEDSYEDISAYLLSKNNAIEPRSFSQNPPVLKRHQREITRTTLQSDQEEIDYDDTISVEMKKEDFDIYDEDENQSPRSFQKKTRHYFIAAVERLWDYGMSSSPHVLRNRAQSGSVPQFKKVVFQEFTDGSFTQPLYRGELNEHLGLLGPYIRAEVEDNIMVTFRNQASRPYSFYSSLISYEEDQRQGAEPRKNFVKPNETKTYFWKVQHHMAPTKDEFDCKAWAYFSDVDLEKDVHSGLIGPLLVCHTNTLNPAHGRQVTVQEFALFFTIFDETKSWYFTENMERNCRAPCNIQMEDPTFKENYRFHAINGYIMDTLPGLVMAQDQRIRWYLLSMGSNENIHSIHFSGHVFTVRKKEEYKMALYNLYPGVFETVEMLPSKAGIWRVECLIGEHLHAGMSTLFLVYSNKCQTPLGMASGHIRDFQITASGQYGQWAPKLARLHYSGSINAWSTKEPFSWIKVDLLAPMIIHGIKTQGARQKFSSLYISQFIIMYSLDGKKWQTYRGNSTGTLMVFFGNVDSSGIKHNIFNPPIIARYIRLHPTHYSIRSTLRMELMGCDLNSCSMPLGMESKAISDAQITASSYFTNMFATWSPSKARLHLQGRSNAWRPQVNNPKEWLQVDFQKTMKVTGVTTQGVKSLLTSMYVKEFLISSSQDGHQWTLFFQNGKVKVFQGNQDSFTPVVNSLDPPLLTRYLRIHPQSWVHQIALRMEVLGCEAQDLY
Experiment: cell-based or functional assay

- CTLA4 expression in TRUC Tregs in vitro: 5 fold
B1: FVIII TRUC (TCR fusion construct: BO2C11 FVIII scFv fused to the N-terminus of murine CD3 epsilon) (scFv)
chain: EIALTQSPGTLSLSPGERATLSCRASQSFSSSYLAWYQQKPGQAPRLLIYGASTRATGIPDRFSGSGSGTDFTLTISRLEPEDFAVYYCQKYGTSAITFGQGTRLEIKGGGGGSGGGGSGGGGSQVQLVQSGAEVKKPGASVKVSCKVSGYTLTELPVHWVRQAPGKGLEWVGSFDPESGESIYAREFQGSVTMTADTSTDIAYMELSSLRSDDTAVYYCAVPDPDAFDIWGQGTMVTVSSGGGGSGGGGSGGGGSDAENIEYKVSISGTSVELTCPLDSDENLKWEKNGQELPQKHDKHLVLQDFSEVEDSGYYVCYTPASNKNTYLYLKARVCEYCVEVDLTAVAIIIIVDICITLGLLMVIYYWSKNRKAKAKPVTRGTGAGSRPRGQNKERPPPVPNPDYEPIRKGQRDLYSGLNQRAV
